Data from patent WO2020146541A2 (dated 2020).
Several values for one entry are separate records, joined by “and”; a condition that tells them apart may be missing. Equal entries are not always repeated. Blank lines part the entries; values can stand above or below the molecule they belong to.

Target: T1, human MSR1 (human, UniProt P21757 1-451)
T1 sequence (looked up): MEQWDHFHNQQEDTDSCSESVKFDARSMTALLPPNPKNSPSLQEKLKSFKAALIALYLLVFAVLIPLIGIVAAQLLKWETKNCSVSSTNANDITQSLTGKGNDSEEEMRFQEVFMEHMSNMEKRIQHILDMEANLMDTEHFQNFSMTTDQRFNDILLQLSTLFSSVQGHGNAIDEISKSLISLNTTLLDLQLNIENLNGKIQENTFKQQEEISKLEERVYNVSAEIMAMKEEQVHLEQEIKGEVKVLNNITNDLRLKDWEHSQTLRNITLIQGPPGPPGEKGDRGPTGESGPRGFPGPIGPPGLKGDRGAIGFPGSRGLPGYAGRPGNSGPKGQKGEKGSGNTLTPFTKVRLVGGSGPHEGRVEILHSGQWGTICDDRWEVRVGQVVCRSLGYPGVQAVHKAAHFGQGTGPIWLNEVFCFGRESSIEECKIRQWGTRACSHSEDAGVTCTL
Assay: cell-based or functional assay

EC50, GR luciferase reporter activity in HEK293/GRLuc/MSR1 cells: > 50 nM | signal to noise (S/N), GR luciferase reporter in HEK293/GRLuc/MSR1 cells: 3.8 to 148
Molecule: isotype control ncADCs (antibody)

EC50, GR luciferase reporter activity in HEK293/GRLuc/MSR1 cells: > 35 nM | signal to noise (S/N), GR luciferase reporter in HEK293/GRLuc/MSR1 cells: 1.9 to 154
Molecule: isotype control ADCs (antibody)

EC50, GR luciferase reporter activity in HEK293/GRLuc/MSR1 cells: 0.636 nM and 3.96 nM
B1: anti-MSR1 (H1H21234N-N297Q) ADCs (antibody, V domains shown)
VH: QVQLQESGPGLVKPSETLSLTCTVTGGSISRNYWSWIRQPPGKGLEWIGYIYYSGSIDYNPSLKSRVTISVDTSKNQFSLKLSSMTAADTAVYYCARDRWNWKYGMDVWGQGTTVIVSS
VL: EIVLTQSPGTLSLSPGERATLSCRASQTVRNNYLAWYHQKPGQAPRLLIYGASSRATGIPDRFSGSGSGTDFTLTISRLEPEDFTVYYCHQYGNSPWTFGQGTKMEIKR
modifications: linker-payload on glutamines Q295 and Q297 (N297Q, EU numbering) of the heavy chain constant region; four DAR
